The nature of this series: total protein half-life in vivo (active degradation + dilution); higher = more stable protein.
Where [1] appears, read: E. coli NCM3722 delta-clpP delta-lon delta-hslV, growth: N-lim chemostat, doubling time 6 h.
Where [2] appears, read: E. coli NCM3722 delta-clpP, growth: N-lim chemostat, doubling time 6 h.
Where [3] appears, read: E. coli NCM3722 delta-hslV, growth: N-lim chemostat, doubling time 6 h.
Where [4] appears, read: E. coli NCM3722 delta-lon, growth: N-lim chemostat, doubling time 6 h.
The mark [5] stands for this setting: E. coli NCM3722 delta-smpB, growth: N-lim chemostat, doubling time 6 h.
Setting [6] is: wild type E. coli NCM3722, growth: C-lim chemostat, doubling time 3 h.
Setting [7] is: wild type E. coli NCM3722, growth: C-lim chemostat, doubling time 6 h.
Where [8] appears, read: wild type E. coli NCM3722, growth: C-lim chemostat, doubling time 12 h.
Setting [9] is: wild type E. coli NCM3722, growth: N-lim chemostat, doubling time 6 h.
Where [10] appears, read: wild type E. coli NCM3722, growth: N-lim chemostat, doubling time 12 h.
The mark [11] stands for this setting: wild type E. coli NCM3722, growth: P-lim chemostat, doubling time 6 h.
The mark [12] stands for this setting: wild type E. coli NCM3722, growth: P-lim chemostat, doubling time 12 h.

± gives the standard deviation of the averaged measurements.

Take “MKKPNHSGSGQIRIIGGQWRGRKLPVPDSPGLRPTTDRVRETLFNWLAPVIVDAQCLDCFAGSGALGLEALSRYAAGATLIEMDRAVSQQLIKNLATLKAGNARVVNSNAMSFLAQKGTPHNIVFVDPPFRRGLLEETINLLEDNGWLADEALIYVESEVENGLPTVPANWSLHREKVAGQVAYRLYQREAQGESDAD [P0ADX9]”: the “total protein half-life in vivo” value was 5.34 ± 0.45 h under setting [1]; 4.8 ± 0.15 h under setting [2]; 4.49 ± 0.13 h under setting [3]; 5.32 ± 0.09 h under setting [4]; 5.18 ± 0.6 h under setting [5]; 3.08 ± 0.15 h under setting [6]. Also, the “total protein half-life in vivo” value runs as follows: under setting [7], 5.57 ± 0.19 h; under setting [8], 10.1 ± 1.5 h; under setting [9], 4.49 ± 0.68 h; under setting [10], 12.5 h; under setting [11], 5.1 ± 0.26 h; under setting [12], 11.1 ± 0.63 h.

On to “MQRRDFLKYSVALGVASALPLWSRAVFAAERPTLPIPDLLTTDARNRIQLTIGAGQSTFGGKTATTWGYNGNLLGPAVKLQRGKAVTVDIYNQLTEETTLHWHGLEVPGEVDGGPQGIIPPGGKRSVTLNVDQPAATCWFHPHQHGKTGRQVAMGLAGLVVIEDDEILKLMLPKQWGIDDVPVIVQDKKFSADGQIDYQLDVMTAAVGWFGDTLLTNGAIYPQHAAPRGWLRLRLLNGCNARSLNFATSDNRPLYVIASDGGLLPEPVKVSELPVLMGERFEVLVEVNDNKPFDLVTLPVSQMGMAIAPFDKPHPVMRIQPIAISASGALPDTLSSLPALPSLEGLTVRKLQLSMDPMLDMMGMQMLMEKYGDQAMAGMDHSQMMGHMGHGNMNHMNHGGKFDFHHANKINGQAFDMNKPMFAAAKGQYERWVISGVGDMMLHPFHIHGTQFRILSENGKPPAAHRAGWKDTVKVEGNVSEVLVKFNHDAPKEHAYMAHCHLLEHEDTGMMLGFTV”, for which the “total protein half-life in vivo” value under setting [2] was determined as 5.63 ± 0.14 h; the “total protein half-life in vivo” value under setting [3] is 6.68 ± 0.32 h; the “total protein half-life in vivo” value under setting [4] was found to be 6.57 ± 0.91 h; the “total protein half-life in vivo” value under setting [5] is 5.62 ± 0.1 h; the “total protein half-life in vivo” value under setting [6] was determined as 2.84 ± 0.38 h; the “total protein half-life in vivo” value under setting [7] worked out at 5.977 ± 0.041 h. The “total protein half-life in vivo” value under setting [8] stood at 11.2 ± 1.3 h; the “total protein half-life in vivo” value under setting [9] is 5.944 ± 0.022 h; the “total protein half-life in vivo” value under setting [10] stood at 13.8 ± 1 h; the “total protein half-life in vivo” value under setting [11] came to 5.657 ± 0.043 h; the “total protein half-life in vivo” value under setting [12] is 14.4 ± 1.6 h.

In the case of “MKRLLILTALLPFVGFAQPINTLNNPNQPGYQIPSQQRMQTQMQTQQIQQKGMLNQQLKTQTQLQQQHLENQINNNSQRVLQSQPGERNPARQQMLPNTNGGMLNSNRNPDSSLNQQHMLPERRNGDMLNQPSTPQPDIPLKTIGP [P0ADX7]”, the “total protein half-life in vivo” value reads like this: under setting [1], 5.56 h; under setting [4], 4.65 h; under setting [5], 3.81 h; under setting [10], 7.44 h.

For “MCEGYVEKPLYLLIAEWMMAENRWVIAREISIHFDIEHSKAVNTLTYILSEVTEISCEVKMIPNKLEGRGCQCQRLVKVVDIDEQIYARLRNNSREKLVGVRKTPRIPAVPLTELNREQKWQMMLSKSMRR [P0AE58]”, the “total protein half-life in vivo” value under setting [1] is 3.96 ± 0.18 h.

Turning to “MSANAETQTPQQPVKKSGKRKRLLLLLTLLFIIIAVAIGIYWFLVLRHFEETDDAYVAGNQIQIMSQVSGSVTKVWADNTDFVKEGDVLVTLDPTDARQAFEKAKTALASSVRQTHQLMINSKQLQANIEVQKIALAKAQSDYNRRVPLGNANLIGREELQHARDAVTSAQAQLDVAIQQYNANQAMILGTKLEDQPAVQQAATEVRNAWLALERTRIISPMTGYVSRRAVQPGAQISPTTPLMAVVPATNMWVDANFKETQIANMRIGQPVTITTDIYGDDVKYTGKVVGLDMGTGSAFSLLPAQNATGNWIKVVQRLPVRIELDQKQLEQYPLRIGLSTLVSVNTTNRDGQVLANKVRSTPVAVSTAREISLAPVNKLIDDIVKANAG”, the “total protein half-life in vivo” value turned out to be 6.17 ± 0.42 h under setting [1]; 6.38 ± 0.53 h under setting [2]; 6.57 ± 0.12 h under setting [3]; 6.37 ± 0.58 h under setting [4]; 6.1 ± 0.26 h under setting [5]; 2.99 ± 0.1 h under setting [6]. Also, the “total protein half-life in vivo” value under setting [7] is 6.37 ± 0.2 h; the “total protein half-life in vivo” value under setting [8] was 13.5 ± 1.8 h; the “total protein half-life in vivo” value under setting [9] was 6.17 ± 0.1 h; the “total protein half-life in vivo” value under setting [10] came to 12 ± 0.35 h; the “total protein half-life in vivo” value under setting [11] was determined as 6.47 ± 0.29 h; the “total protein half-life in vivo” value under setting [12] came to 13.6 ± 2.7 h.

For the sequence “MSDEGLAPGKRLSEIRQQQGLSQRRAAELSGLTHSAISTIEQDKVSPAISTLQKLLKVYGLSLSEFFSEPEKPDEPQVVINQDDLIEMGSQGVSMKLVHNGNPNRTLAMIFETYQPGTTTGERIKHQGEEIGTVLEGEIVLTINGQDYHLVAGQSYAINTGIPHSFSNTSAGICRIISAHTPTTF [P0A9U6]”, the “total protein half-life in vivo” value was determined as 5.35 ± 0.67 h under setting [1]; 5.41 ± 3.1 h under setting [2]; 3.29 h under setting [3]; 4.06 ± 0.25 h under setting [4]; 2.66 ± 0.063 h under setting [5]; 4.03 ± 0.12 h under setting [7]. Further, the “total protein half-life in vivo” value runs as follows: under setting [8], 5.53 ± 0.11 h; under setting [9], 2.7 ± 0.51 h; under setting [10], 3.47 ± 0.064 h; under setting [11], 4.43 ± 0.92 h; under setting [12], 6.69 ± 0.82 h.

Consider “MKSLFKVTLLATTMAVALHAPITFAAEAAKPATAADSKAAFKNDDQKSAYALGASLGRYMENSLKEQEKLGIKLDKDQLIAGVQDAFADKSKLSDQEIEQTLQAFEARVKSSAQAKMEKDAADNEAKGKEYREKFAKEKGVKTSSTGLVYQVVEAGKGEAPKDSDTVVVNYKGTLIDGKEFDNSYTRGEPLSFRLDGVIPGWTEGLKNIKKGGKIKLVIPPELAYGKAGVPGIPPNSTLVFDVELLDVKPAPKADAKPEADAKAADSAKK”, for which the “total protein half-life in vivo” value is, setting by setting: under setting [1], 6.63 ± 0.44 h; under setting [2], 6.6 ± 0.35 h; under setting [3], 6.58 ± 0.14 h; under setting [4], 6.56 ± 0.067 h; under setting [5], 5.9 ± 0.28 h; under setting [6], 3.15 ± 0.053 h. For the same sequence, the “total protein half-life in vivo” value reads like this: under setting [7], 6.68 ± 0.15 h; under setting [8], 11.5 ± 0.64 h; under setting [9], 5.86 ± 0.3 h; under setting [10], 14 ± 2.2 h; under setting [11], 6.04 ± 0.87 h; under setting [12], 14.8 ± 1.6 h.

As to “MSSTNIEQVMPVKLAQALANPLFPALDSALRSGRHIGLDELDNHAFLMDFQEYLEEFYARYNVELIRAPEGFFYLRPRSTTLIPRSVLSELDMMVGKILCYLYLSPERLANEGIFTQQELYDELLTLADEAKLLKLVNNRSTGSDVDRQKLQEKVRSSLNRLRRLGMVWFMGHDSSKFRITESVFRFGADVRAGDDPREAQRRLIRDGEAMPIENHLQLNDETEENQPDSGEEE”, the “total protein half-life in vivo” value by setting is: under setting [1], 6.36 ± 0.27 h; under setting [2], 6.18 ± 0.4 h; under setting [4], 6.21 ± 0.7 h; under setting [5], 5.67 ± 0.27 h; under setting [6], 2.98 ± 0.069 h; under setting [7], 5.85 ± 0.17 h. The “total protein half-life in vivo” value is 11.1 ± 0.5 h under setting [8]; 5.85 ± 0.31 h under setting [9]; 9.43 ± 0.28 h under setting [10]; 5.716 ± 0.029 h under setting [11]; 10.7 ± 0.54 h under setting [12].

Source of the values: the supplement of paper PMC11246515.
